From article PMC2647743 (Bioconjugate chemistry, 2008)

How the values were obtained:
Biodistribution = conditions: ICR SCID, mouse, in vivo, 185 kBq, total radioactivity, tumor uptake, PC-3 tumor bearing SCID mice, 15 min post-injection
PC-3 tumor xenografts = test: Biodistribution; conditions: PC-3 tumor bearing SCID mice; for tumor retention: initial (15 min) uptake retained in the tumor tissue: 24 hr post-injection relative to the 15 min values

| Structure (SMILES) | tissue uptake at 0.25 h (Biodistribution) [%ID/g] | tumor retention: initial (15 min) uptake retained in the tumor tissue (PC-3 tumor xenografts) [%] | Heart (PC-3 tumor xenografts; 1 hr p.i., i.v.) [%ID/g] | Liver (PC-3 tumor xenografts; 4 hr p.i., i.v., n = 5) [%ID/g] | Lung (PC-3 tumor xenografts; 24 hr p.i., i.v., n = 5) [%ID/g] |
| --- | --- | --- | --- | --- | --- |
| CSCC[C@H](NC(=O)[C@H](CC(C)C)NC(=O)[C@H](Cc1cnc[nH]1)NC(=O)CNC(=O)[C@@H](NC(=O)[C@H](C)NC(=O)[C@H](Cc1c[nH]c2ccccc12)NC(=O)[C@H](CCC(N)=O)NC(=O)c1ccc(NC(=O)CN2CCN(CC(=O)O)CCN(CC(=O)O)CCN(CC(=O)O)CC2)cc1)C(C)C)C(N)=O [In-DOTA-AMBA-BBN(7-14)NH2] | 6.36 ± 1.6 | 26.6 |  |  |  |
| CSCC[C@H](NC(=O)[C@H](CC(C)C)NC(=O)[C@H](Cc1cnc[nH]1)NC(=O)CNC(=O)[C@@H](NC(=O)[C@H](C)NC(=O)[C@H](Cc1c[nH]c2ccccc12)NC(=O)[C@H](CCC(N)=O)NC(=O)CCCCCCCNC(=O)CN1CCN(CC(=O)O)CCN(CC(=O)O)CCN(CC(=O)O)CC1)C(C)C)C(N)=O [In-DOTA-8-AOC-BBN(7-14)NH2] | 6.66 ± 2 | 11.4 | 0.19 ± 0.20 | 0.15 ± 0.02 | 0.07 ± 0.03 |
| CSCC[C@H](NC(=O)[C@H](CC(C)C)NC(=O)[C@H](Cc1c[nH]cn1)NC(=O)CNC(=O)[C@@H](NC(=O)[C@H](C)NC(=O)[C@H](Cc1c[nH]c2ccccc12)NC(=O)[C@H](CCC(N)=O)NC(=O)CCC(=O)NCCOCCOCCNC(=O)CN1CCN(CC(=O)O)CCN(CC(=O)O)CCN(CC(=O)O)CC1)C(C)C)C(N)=O [In-DOTA-8-ADS-BBN(7-14)NH2] | 6.21 ± 1.57 | 19.8 |  |  |  |
